Test results: publication PMC9482650, “Quantitative fragmentomics allow affinity mapping of interactomes” (Nature Communications, 2022)

T1: NHERF3_3, Q5T2W1
T1 sequence (Q5T2W1 238-333, limits assumed, looked up): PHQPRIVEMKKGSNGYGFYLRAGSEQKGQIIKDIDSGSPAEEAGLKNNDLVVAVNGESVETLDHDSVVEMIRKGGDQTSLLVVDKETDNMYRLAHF

T2: APBA2_1, Q99767
T2 sequence (Q99767 563-664, limits assumed, looked up): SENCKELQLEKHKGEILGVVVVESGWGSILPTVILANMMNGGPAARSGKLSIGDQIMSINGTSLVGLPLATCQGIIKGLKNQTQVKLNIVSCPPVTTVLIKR

T3: DFNB31_1, Q9P202
T3 sequence (Q9P202 135-233, limits assumed, looked up): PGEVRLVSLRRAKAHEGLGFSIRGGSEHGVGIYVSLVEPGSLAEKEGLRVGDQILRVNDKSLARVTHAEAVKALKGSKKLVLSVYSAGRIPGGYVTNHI

T4: GRIP1_2, Q9Y3R0
T4 sequence (Q9Y3R0 145-248, limits assumed, looked up): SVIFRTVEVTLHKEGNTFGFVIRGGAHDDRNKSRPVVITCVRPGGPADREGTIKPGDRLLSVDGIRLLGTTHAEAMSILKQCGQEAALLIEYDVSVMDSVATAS

T5: APBA1_1, Q02410
T5 sequence (Q02410 651-752, limits assumed, looked up): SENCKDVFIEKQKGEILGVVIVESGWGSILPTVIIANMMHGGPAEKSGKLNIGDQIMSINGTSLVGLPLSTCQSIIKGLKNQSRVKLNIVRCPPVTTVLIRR

T6: MPDZ_5, O75970
T6 sequence (O75970 695-796, limits assumed, looked up): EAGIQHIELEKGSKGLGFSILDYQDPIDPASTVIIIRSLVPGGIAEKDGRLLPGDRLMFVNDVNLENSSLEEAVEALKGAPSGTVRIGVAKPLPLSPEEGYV

T7: MPP2, Q14168
T7 sequence (Q14168 180-250, limits assumed, looked up): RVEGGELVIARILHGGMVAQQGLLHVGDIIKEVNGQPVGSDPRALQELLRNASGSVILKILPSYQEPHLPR

T8: GRIP1_5, Q9Y3R0
T8 sequence (Q9Y3R0 568-668, limits assumed, looked up): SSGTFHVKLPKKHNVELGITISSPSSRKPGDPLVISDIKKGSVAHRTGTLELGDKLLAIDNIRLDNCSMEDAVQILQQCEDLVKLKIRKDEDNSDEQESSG

T9: APBA2_2, Q99767
T9 sequence (Q99767 654-744, limits assumed, looked up): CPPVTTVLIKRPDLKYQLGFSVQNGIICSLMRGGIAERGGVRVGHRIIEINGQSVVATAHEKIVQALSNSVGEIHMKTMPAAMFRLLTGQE

T10: DLG3_3, Q92796
T10 sequence (Q92796 374-475, limits assumed, looked up): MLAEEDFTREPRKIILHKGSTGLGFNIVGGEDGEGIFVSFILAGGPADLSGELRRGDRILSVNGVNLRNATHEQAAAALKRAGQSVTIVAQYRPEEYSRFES

T11: ARHGEF11, O15085
T11 sequence (O15085 42-136, limits assumed, looked up): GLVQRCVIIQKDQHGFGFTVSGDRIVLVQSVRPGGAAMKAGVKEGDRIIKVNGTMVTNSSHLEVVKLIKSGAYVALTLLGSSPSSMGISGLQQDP

T12: SNTB1, Q13884
T12 sequence (Q13884 107-205, limits assumed, looked up): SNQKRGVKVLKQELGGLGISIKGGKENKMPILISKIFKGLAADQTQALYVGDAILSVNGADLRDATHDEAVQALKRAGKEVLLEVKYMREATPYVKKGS


Legend:
Assay in all cases: holdup assay
Parameters in all cases: key: below the threshold = too weak to quantify, mostly under pKd 3.1 to 4
Settings in all cases: plain residues with an end cap or a label only (N-terminal biotin on a linker: ado-ado)
GOPC, Q9HD26 = target: GOPC, Q9HD26
CASK, O14936 = target: CASK, O14936
Chain of CASK, O14936 (O14936 487-570): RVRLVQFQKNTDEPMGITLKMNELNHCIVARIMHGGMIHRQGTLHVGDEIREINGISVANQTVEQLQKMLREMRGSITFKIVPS

DLG1_2, Q12959 = target: DLG1_2, Q12959
Chain of DLG1_2, Q12959 (Q12959 314-412): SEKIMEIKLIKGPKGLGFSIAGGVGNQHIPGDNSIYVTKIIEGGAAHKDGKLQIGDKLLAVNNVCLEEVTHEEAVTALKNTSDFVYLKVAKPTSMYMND

LNX1_1, Q8TBB1 = target: LNX1_1, Q8TBB1
Chain of LNX1_1, Q8TBB1 (Q8TBB1 261-371): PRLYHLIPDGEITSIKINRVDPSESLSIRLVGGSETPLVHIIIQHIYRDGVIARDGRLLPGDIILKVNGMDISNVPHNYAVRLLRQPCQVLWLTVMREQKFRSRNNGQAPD

DLG4_1, P78352 = target: DLG4_1, P78352
Chain of DLG4_1, P78352 (P78352 62-152): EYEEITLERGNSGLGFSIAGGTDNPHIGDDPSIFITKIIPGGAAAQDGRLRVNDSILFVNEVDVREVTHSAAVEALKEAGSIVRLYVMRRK

NHERF3_3, Q5T2W1 = target: T1, NHERF3_3, Q5T2W1
APBA2_1, Q99767 = target: T2, APBA2_1, Q99767
DFNB31_1, Q9P202 = target: T3, DFNB31_1, Q9P202
GRID2IP_2, A4D2P6 = target: GRID2IP_2, A4D2P6
Chain of GRID2IP_2, A4D2P6 (A4D2P6 272-370): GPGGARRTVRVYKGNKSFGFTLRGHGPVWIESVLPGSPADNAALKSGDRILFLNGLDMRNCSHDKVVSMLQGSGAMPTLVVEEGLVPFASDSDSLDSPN

GRIP1_2, Q9Y3R0 = target: T4, GRIP1_2, Q9Y3R0
APBA1_1, Q02410 = target: T5, APBA1_1, Q02410
TJP1_3, Q07157 = target: TJP1_3, Q07157
Chain of TJP1_3, Q07157 (Q07157 416-512): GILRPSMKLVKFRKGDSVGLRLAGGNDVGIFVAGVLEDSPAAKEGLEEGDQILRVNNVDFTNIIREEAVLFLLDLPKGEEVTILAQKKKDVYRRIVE

MPDZ_5, O75970 = target: T6, MPDZ_5, O75970
NHERF4_4, Q86UT5 = target: NHERF4_4, Q86UT5
Chain of NHERF4_4, Q86UT5 (Q86UT5 464-550): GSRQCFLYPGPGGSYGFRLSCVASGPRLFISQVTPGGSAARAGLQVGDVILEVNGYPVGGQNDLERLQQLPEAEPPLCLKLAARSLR

GORASP2, Q9H8Y8 = target: GORASP2, Q9H8Y8
DLG1_3, Q12959 = target: DLG1_3, Q12959
Chain of DLG1_3, Q12959 (Q12959 457-571): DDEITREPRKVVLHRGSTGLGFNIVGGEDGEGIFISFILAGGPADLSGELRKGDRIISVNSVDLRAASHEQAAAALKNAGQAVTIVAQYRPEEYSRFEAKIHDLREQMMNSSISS

MPP2, Q14168 = target: T7, MPP2, Q14168
FRMPD4, Q14CM0 = target: FRMPD4, Q14CM0
Chain of FRMPD4, Q14CM0 (Q14CM0 67-160): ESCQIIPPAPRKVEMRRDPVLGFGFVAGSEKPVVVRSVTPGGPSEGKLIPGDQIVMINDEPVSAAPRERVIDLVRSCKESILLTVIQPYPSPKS

GRIP1_5, Q9Y3R0 = target: T8, GRIP1_5, Q9Y3R0
IL16_3, Q14005 = target: IL16_3, Q14005
Chain of IL16_3, Q14005 (Q14005 1107-1207): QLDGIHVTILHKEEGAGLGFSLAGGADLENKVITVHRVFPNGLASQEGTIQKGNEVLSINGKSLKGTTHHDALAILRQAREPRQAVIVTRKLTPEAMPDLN

APBA2_2, Q99767 = target: T9, APBA2_2, Q99767
LNX1_2, Q8TBB1 = target: LNX1_2, Q8TBB1
Chain of LNX1_2, Q8TBB1 (Q8TBB1 371-470): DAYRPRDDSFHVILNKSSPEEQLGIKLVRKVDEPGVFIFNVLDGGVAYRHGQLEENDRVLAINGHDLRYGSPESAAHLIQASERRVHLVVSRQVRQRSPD

DLG3_3, Q92796 = target: T10, DLG3_3, Q92796
IL16_1, Q14005 = target: IL16_1, Q14005
Chain of IL16_1, Q14005 (Q14005 210-306): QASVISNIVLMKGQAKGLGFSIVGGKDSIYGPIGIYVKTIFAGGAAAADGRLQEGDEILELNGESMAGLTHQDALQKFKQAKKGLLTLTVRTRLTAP

ARHGEF11, O15085 = target: T11, ARHGEF11, O15085
SNTB1, Q13884 = target: T12, SNTB1, Q13884

| Binder | pKd (GOPC, Q9HD26) | pKd (CASK, O14936) | pKd (DLG1_2, Q12959) | pKd (LNX1_1, Q8TBB1) | pKd (DLG4_1, P78352) | pKd (NHERF3_3, Q5T2W1) | pKd (APBA2_1, Q99767) | pKd (DFNB31_1, Q9P202) | pKd (GRID2IP_2, A4D2P6) | pKd (GRIP1_2, Q9Y3R0) | pKd (APBA1_1, Q02410) | pKd (TJP1_3, Q07157) | pKd (MPDZ_5, O75970) | pKd (NHERF4_4, Q86UT5) | pKd (GORASP2, Q9H8Y8) | pKd (DLG1_3, Q12959) | pKd (MPP2, Q14168) | pKd (FRMPD4, Q14CM0) | pKd (GRIP1_5, Q9Y3R0) | pKd (IL16_3, Q14005) | other results |
| --- | --- | --- | --- | --- | --- | --- | --- | --- | --- | --- | --- | --- | --- | --- | --- | --- | --- | --- | --- | --- | --- |
| PDGEMMEVLI [AMOTL1, Q8IY63] | below the threshold | below the threshold | below the threshold | below the threshold | below the threshold | below the threshold | below the threshold | below the threshold | below the threshold | below the threshold | below the threshold | below the threshold | below the threshold | below the threshold | below the threshold | below the threshold | below the threshold | below the threshold | below the threshold | below the threshold | pKd (APBA2_2, Q99767): below the threshold; pKd (LNX1_2, Q8TBB1): below the threshold; pKd (DLG3_3, Q92796): below the threshold; pKd (IL16_1, Q14005): below the threshold; pKd (ARHGEF11, O15085): below the threshold; pKd (SNTB1, Q13884): below the threshold |
| REVVMRVTTV [MARCHF9, Q86YJ5] | 4.9 | 3.5 | 5.44 | 4.41 | 5.06 | below the threshold | below the threshold | 3.98 | 4.13 | below the threshold | below the threshold | below the threshold | below the threshold | below the threshold | 5.53 | 5.01 | below the threshold | below the threshold | below the threshold | below the threshold | pKd (APBA2_2, Q99767): below the threshold; pKd (LNX1_2, Q8TBB1): 4.56; pKd (DLG3_3, Q92796): 4.64; pKd (IL16_1, Q14005): 4.17; pKd (ARHGEF11, O15085): 4.65; pKd (SNTB1, Q13884): 5.37 |
| VISERNSTTV [C3AR1, Q16581] | 3.92 | below the threshold | 4.72 | 3.61 | 4.58 | below the threshold | below the threshold | below the threshold | 3.66 | below the threshold | below the threshold | below the threshold | below the threshold | below the threshold | below the threshold | below the threshold | below the threshold | below the threshold | below the threshold | below the threshold | pKd (APBA2_2, Q99767): below the threshold; pKd (LNX1_2, Q8TBB1): 3.78; pKd (DLG3_3, Q92796): below the threshold; pKd (IL16_1, Q14005): below the threshold; pKd (ARHGEF11, O15085): 4.45; pKd (SNTB1, Q13884): 3.77 |

Further lines, with some results ahead:

| pKd (GOPC, Q9HD26) | pKd (CASK, O14936) | pKd (DLG1_2, Q12959) | pKd (LNX1_1, Q8TBB1) | pKd (DLG4_1, P78352) | pKd (NHERF3_3, Q5T2W1) | pKd (APBA2_1, Q99767) | pKd (DFNB31_1, Q9P202) | pKd (GRID2IP_2, A4D2P6) | pKd (GRIP1_2, Q9Y3R0) | pKd (APBA1_1, Q02410) | pKd (TJP1_3, Q07157) | pKd (MPDZ_5, O75970) | pKd (NHERF4_4, Q86UT5) | pKd (GORASP2, Q9H8Y8) | pKd (DLG1_3, Q12959) | pKd (MPP2, Q14168) | pKd (FRMPD4, Q14CM0) | pKd (GRIP1_5, Q9Y3R0) | pKd (IL16_3, Q14005) | Binder | other results |
| --- | --- | --- | --- | --- | --- | --- | --- | --- | --- | --- | --- | --- | --- | --- | --- | --- | --- | --- | --- | --- | --- |
| 3.61 | below the threshold | 4.29 | below the threshold | 4.02 | 3.48 | below the threshold | 3.74 | below the threshold | below the threshold | below the threshold | below the threshold | below the threshold | below the threshold | below the threshold | below the threshold | below the threshold | 4.7 | below the threshold | below the threshold | WRSKRTDTLL [RAMP3, O60896] | pKd (APBA2_2, Q99767): below the threshold; pKd (LNX1_2, Q8TBB1): below the threshold; pKd (DLG3_3, Q92796): below the threshold; pKd (IL16_1, Q14005): below the threshold; pKd (ARHGEF11, O15085): 3.47; pKd (SNTB1, Q13884): below the threshold |
| 3.96 | below the threshold | 5.14 | 4.57 | 4.94 | below the threshold | below the threshold | 4.2 | 3.81 | below the threshold | below the threshold | below the threshold | below the threshold | below the threshold | 3.8 | 4.09 | below the threshold | below the threshold | below the threshold | below the threshold | QELLEYETTV [XKR7, Q5GH72] | pKd (APBA2_2, Q99767): below the threshold; pKd (LNX1_2, Q8TBB1): 3.73; pKd (DLG3_3, Q92796): 3.88; pKd (IL16_1, Q14005): 4.12; pKd (ARHGEF11, O15085): 4.56; pKd (SNTB1, Q13884): 5.07 |
